The target of assay [1] is T1, CD3 on T cells / Jurkat cells (human, UniProt P07766 23-207; P04234 22-171; P09693 23-182).
T1 construct: whole, on cells; Native CD3 complex on CD3+ T cells isolated from normal donors or on Jurkat cells; also called human CD3; CD3+ T cells
As to the kind of experiment: FACS on Jurkat cells expressing CD3.

Assay [2] deals with T2, CD20 on DoHH2 cells (human, UniProt P11836 1-297).
T2 construct: whole, on cells; Endogenous CD20 on the human DoHH2 cell line; also called DoHH2 cells expressing CD20
T2 sequence (looked up): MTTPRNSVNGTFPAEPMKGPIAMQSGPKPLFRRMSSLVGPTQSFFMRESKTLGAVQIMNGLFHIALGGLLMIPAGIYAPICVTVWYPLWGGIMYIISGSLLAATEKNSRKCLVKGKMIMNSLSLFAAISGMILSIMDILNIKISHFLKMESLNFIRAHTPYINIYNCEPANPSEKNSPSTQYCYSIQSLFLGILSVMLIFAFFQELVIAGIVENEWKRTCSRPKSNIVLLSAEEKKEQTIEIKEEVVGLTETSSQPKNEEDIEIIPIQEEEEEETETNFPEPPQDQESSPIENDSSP
Put plainly: FACS on DoHH2 cells expressing CD20 (FIG. 45E).

For assay [3], the target named is T1, CD3 on T cells / Jurkat cells. As to the kind of experiment: FACS on CD3+ T cells isolated from normal donors.
Assay [4] has the same target. As to the kind of experiment: FACS on Jurkat cells.
The target in assay [5] is T3, GPRC5D on multiple myeloma cells (human, UniProt Q9NZD1 1-345).
T3 construct: whole, on cells; Endogenous GPRC5D on multiple myeloma cell lines; also called G-protein coupled receptor family C group 5 member D; MM.1S, MOLP-8, L363, RPMI8226 cells
As to the kind of experiment: FACS on multiple myeloma cell lines.

Assay [6] concerns the target T4, CD19 on NALM6 cells, Raji cells and primary B cells (human, UniProt P15391 20-556).
T4 construct: whole, on cells; Endogenous CD19 on human cell lines / donor B cells; also called NALM6 cells expressing CD19; Raji cells expressing CD19
T4 sequence (looked up): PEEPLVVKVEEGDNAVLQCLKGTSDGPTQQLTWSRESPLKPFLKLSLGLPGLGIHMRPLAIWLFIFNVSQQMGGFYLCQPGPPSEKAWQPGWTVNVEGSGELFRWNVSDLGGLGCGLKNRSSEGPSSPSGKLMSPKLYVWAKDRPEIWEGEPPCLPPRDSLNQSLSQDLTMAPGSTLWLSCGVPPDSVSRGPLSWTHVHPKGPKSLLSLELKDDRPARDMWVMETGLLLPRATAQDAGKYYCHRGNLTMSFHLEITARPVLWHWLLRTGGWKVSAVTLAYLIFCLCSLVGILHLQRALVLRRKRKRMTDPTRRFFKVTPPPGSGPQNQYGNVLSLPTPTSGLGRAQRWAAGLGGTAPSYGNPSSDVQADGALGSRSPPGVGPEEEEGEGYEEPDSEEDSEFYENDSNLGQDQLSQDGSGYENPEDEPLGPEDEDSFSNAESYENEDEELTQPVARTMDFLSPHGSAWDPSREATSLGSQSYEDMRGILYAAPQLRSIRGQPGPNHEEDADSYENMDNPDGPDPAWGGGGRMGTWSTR
Put plainly: FACS on primary B cells from healthy donors' PBMC (FIG. 45D). The method, then: (§1) To evaluate the binding affinity of the generated bispecific antibodies to NALM6 cells, Raji cells, Primary B cells, DoHH2 cells, SU-DHL-1 cells and Jurkat cells, the NALM6 cells expressing CD19, Raji cells expressing CD19, Primary B cells, DoHH2 cells expressing CD20, SU-DHL-1 cells without expressing CD19 or CD20 and Jurkat cells expressing CD3 were stained by the test antibodies and the binding affinity was determined by FACS analysis. Primary B cells were isolated from healthy donors' PBMC by human B cell enrichment Kit (Stemcell #19054). The protocol of FACS analysis is described as follows: [0933] (a) The cells from each cell line above were harvested and centrifuged at 300 g for 5 min, and the supernatant were discarded. […] (b) The cells were washed 2 times with FACS buffer. [0935] (c) Step (a) was repeated. [0936] […] [0937] (e) Step (b) was repeated and the cells were resuspended with 100 μl/well diluted secondary antibody, and incubated at 4° C. for 45 minutes in the dark. [0938] (f) Step (b) was repeated and the cells were resuspended the cells with 150 μl/well FACS buffer and kept in dark for FACS analysis.

For assay [7], the target named is T4, CD19 on NALM6 cells, Raji cells and …. As to the kind of experiment: FACS on Raji cells expressing CD19 (FIG. 45C). As to the method: as §1
For assay [8] the target is unchanged. Put plainly: FACS on NALM6 cells expressing CD19, another experiment (FIG. 45B). The method, then: as §1
Assay [9] concerns the target T3, GPRC5D on multiple myeloma cells. Put plainly: FACS on MM.1S cells.

Broadly, the EC50 is the concentration giving half of the maximal effect.

Residue numbers refer to the chain shown, from its start. In names and notes the source's numbering stands.

T3 sequence (Q9NZD1 whole entry): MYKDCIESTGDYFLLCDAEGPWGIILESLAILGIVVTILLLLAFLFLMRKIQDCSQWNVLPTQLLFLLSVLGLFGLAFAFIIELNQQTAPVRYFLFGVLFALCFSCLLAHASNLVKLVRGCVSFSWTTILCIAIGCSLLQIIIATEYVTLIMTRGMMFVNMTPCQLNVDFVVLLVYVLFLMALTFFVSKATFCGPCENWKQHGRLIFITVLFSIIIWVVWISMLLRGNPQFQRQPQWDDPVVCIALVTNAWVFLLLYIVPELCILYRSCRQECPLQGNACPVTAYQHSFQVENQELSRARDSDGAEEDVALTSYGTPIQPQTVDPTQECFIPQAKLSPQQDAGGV
T1 sequence (P07766 23-207, chain 1 of 3): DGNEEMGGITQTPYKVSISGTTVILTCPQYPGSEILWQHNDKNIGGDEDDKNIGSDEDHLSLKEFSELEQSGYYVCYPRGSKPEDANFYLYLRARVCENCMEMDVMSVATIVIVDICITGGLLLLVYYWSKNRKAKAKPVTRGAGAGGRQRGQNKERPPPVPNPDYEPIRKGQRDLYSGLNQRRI
T1 sequence (P04234 22-171, chain 2 of 3): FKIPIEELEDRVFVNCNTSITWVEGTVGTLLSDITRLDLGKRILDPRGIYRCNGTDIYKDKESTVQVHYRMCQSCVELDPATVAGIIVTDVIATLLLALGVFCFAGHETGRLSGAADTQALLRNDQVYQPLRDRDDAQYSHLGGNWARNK
T1 sequence (P09693 23-182, chain 3 of 3): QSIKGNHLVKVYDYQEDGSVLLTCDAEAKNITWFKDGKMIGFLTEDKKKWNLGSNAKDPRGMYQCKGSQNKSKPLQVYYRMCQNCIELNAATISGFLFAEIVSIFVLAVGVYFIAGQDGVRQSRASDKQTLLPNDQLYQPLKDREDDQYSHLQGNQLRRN

B1: ATG201-N55S-200 (bispecific antibody, human IgG1, kappa, L234A L235A)
heavy 1: not shown
heavy 2: EVQLVESGGGLVQPGRSLRLSCAASGFTFNDYAMHWVRQAPGKGLEWVSTISWNSGSIGYADSVKGRFTISRDNAKKSLYLQMNSLRAEDTALYYCAKDIQYGNYYYGMDVWGQGTTVTVSSASTKGPSVFPLAPSSKSTSGGTAALGCLVKDYFPEPVTVSWNSGALTSGVHTFPAVLQSSGLYSLSSVVTVPSSSLGTQTYICNVNHKPSNTKVDKKVEPKSCGGGGSGGGGSEVQLVQSGAEVKKPGSSVKVSCKASGYTFSSYVIHWVRQAPGQCLEWMGYINPYSDVIKYNEKFKGRVTLTSDKSTSTAYMELSSLRSEDTAVYYCARDSYYSYDGFAYWGQGTLVTVSSGGGGSGGGGSGGGGSGGGGSEIVLTQSPDFQSVTPKEKVTITCSASSSVSYMHWYQQKPDQSPKRLIYDTSKLASGVPSRFSGSGSGTDFTLTINSLEAEDAATYYCQQWSSNPPTFGCGTKVEIKGGGGSGGGGSDKTHTCPPCPAPEAAGGPSVFLFPPKPKDTLMISRTPEVTCVVVDVSHEDPEVKFNWYVDGVEVHNAKTKPREEQYNSTYRVVSVLTVLHQDWLNGKEYKCKVSNKALPAPIEKTISKAKGQPREPQVCTLPPSREEMTKNQVSLSCAVKGFYPSDIAVEWESNGQPENNYKTTPPVLDSDGSFFLVSKLTVDKSRWQQGNVFSCSVMHEALHNHYTQKSLSLSPGK
light: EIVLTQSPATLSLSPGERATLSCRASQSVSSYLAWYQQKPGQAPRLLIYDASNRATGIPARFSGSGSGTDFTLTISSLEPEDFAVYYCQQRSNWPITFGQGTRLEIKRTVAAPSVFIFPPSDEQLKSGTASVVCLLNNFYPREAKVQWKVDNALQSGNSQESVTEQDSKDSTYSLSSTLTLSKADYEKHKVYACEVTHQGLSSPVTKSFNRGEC
notes: L234A/L235A; also called ATG201-N55S-20O
B1: in assay [1], the binding result was “binds”. Further, the EC50 in assay [2] was found to be 4.89 nM.

B2: Bis-GD2-Fab3 (bispecific antibody, V domains shown)
VH 1: QVQLVESGPGVVQPGRSLRISCAVSGFSVTNYGVHWVRQPPGKGLEWLGVIWAGGITNYNSAFMSRLTISKDNSKNTVYLQMNSLRAEDTAMYYCASRGGHYGYALDYWGQGTLVTVSS
VL 1: EIVMTQTPATLSVSAGERVTITCKASQSVSNDVTWYQQKPGQAPRLLIYSASNRYSGVPARFSGSGYGTEFTFTISSVQSEDFAVYFCQQDYSSFGQGTKLEIK
VH 2: EVQLQLSGPELVKPGASVKMSCKASGYTFSSYVIHWVKQKPGQGLEWIGYINPYNDVIKYNEKFKGKATLTSDKSSSTAYMELSSLTSEDSAVYYCARDSYYSYDGFAYWGQGTLVTVSA
VL 2: QIVLTQSPAIMSASPGEKVTMTCSASSSVSYMHWYQQKSGTSPKRWIYDTSKLASGVPARFSGSGSGTSYSLTISSMEAEDAATYYCQQWSSNPPTFGGGTKVEIK
notes: Fab3 format of WO2019154890A1: two anti-GD2 Fabs (humanized 3F8) and one anti-CD3 Fab (40-C12-C10-E9); also called Fab3 GD2xCD3 bispecific antibody
Regarding B2, the binding result in assay [3] is listed as “binds”.

B3: Bis-40E9-L2H3-Y101F.H (bispecific antibody)
VH: EVQLVQSGAEVKKPGASVKVSCKASGYTFTSYVIHWVRQAPGQGLEWMGYFNPYNDGTKYNEEFKGRVTLTSDKSTSTAYMELRSLRSDDTAVYYCARGGVRRYFDVWGQGTTVTVSS
VL: DIQMTQSPSSLSASVGDRVTITCRASQDIGSNLNWLQQKPGKAIKRLIYATFGLDSGVPSRFSGSRSGTDFTLTISSLQPEDFATYYCQQYASFPYTFGGGTKVEIK
scFv: EVQLVQSGAEVKKPGSSVKVSCKASGYTFSSYVIHWVRQAPGQCLEWMGYINPYNDVIKYNEKFKGRVTLTSDKSTSTAYMELSSLRSEDTAVYYCARDSFYSYDGFAYWGQGTLVTVSSGGGGSGGGGSGGGGSGGGGSEIVLTQSPDFQSVTPKEKVTITCSASSSVSYMHWYQQKPDQSPKRLIYDTSKLASGVPSRFSGSGSGTDFTLTINSLEAEDAATYYCQQWSSNPPTFGCGTKVEIK
notes: L234A/L235A
For the molecule B3, the binding result in assay [4] and in assay [5] was “binds” each time.

B4: Bis-40E9-L2H3-Y54G.H (bispecific antibody)
VH: B3 VH
VL: B3 VL
scFv: B3 scFv with Y54G, F101Y
notes: L234A/L235A
Consider B4, for which the binding result in [4] and in assay [5] was “binds” each time.

B5: Bis-40E9-L2H3-D105R.H (bispecific antibody)
VH: B3 VH
VL: B3 VL
scFv: B3 scFv with F101Y, D105R
notes: L234A/L235A
As for B5, the binding result in assay [4] and in assay [5] was “binds” in each case.

B6: ATG201-N55S-19B (bispecific antibody, human IgG1, kappa, L234A L235A)
heavy 1: not shown
heavy 2: QVQLQQSGAELVRPGSSVKISCKASGYAFSSYWMNWVKQRPGQGLEWIGQIWPGDGDTNYNGKFKGKATLTADESSSTAYMQLSSLASEDSAVYFCARRETTTVGRYYYAMDYWGQGTTVTVSSASTKGPSVFPLAPSSKSTSGGTAALGCLVKDYFPEPVTVSWNSGALTSGVHTFPAVLQSSGLYSLSSVVTVPSSSLGTQTYICNVNHKPSNTKVDKKVEPKSCGGGGSGGGGSEVQLVQSGAEVKKPGSSVKVSCKASGYTFSSYVIHWVRQAPGQCLEWMGYINPYSDVIKYNEKFKGRVTLTSDKSTSTAYMELSSLRSEDTAVYYCARDSYYSYDGFAYWGQGTLVTVSSGGGGSGGGGSGGGGSGGGGSEIVLTQSPDFQSVTPKEKVTITCSASSSVSYMHWYQQKPDQSPKRLIYDTSKLASGVPSRFSGSGSGTDFTLTINSLEAEDAATYYCQQWSSNPPTFGCGTKVEIKGGGGSGGGGSDKTHTCPPCPAPEAAGGPSVFLFPPKPKDTLMISRTPEVTCVVVDVSHEDPEVKFNWYVDGVEVHNAKTKPREEQYNSTYRVVSVLTVLHQDWLNGKEYKCKVSNKALPAPIEKTISKAKGQPREPQVCTLPPSREEMTKNQVSLSCAVKGFYPSDIAVEWESNGQPENNYKTTPPVLDSDGSFFLVSKLTVDKSRWQQGNVFSCSVMHEALHNHYTQKSLSLSPGK
light: not shown
notes: CD19xCD3 Fab-scFv-Fab: two C19B Fabs, anti-CD3 scFv 40E9-L2H3-N55S.H; L234A/L235A
B6: the figures for the EC50 in assay [6], in assay [7] and in assay [8] were 0.442 nM, 1.11 nM and 0.513 nM, respectively. In addition, in assay [1], the binding result is listed as “binds”.

B7: ATG201-Y101F-19B (bispecific antibody, human IgG1, kappa, L234A L235A)
heavy 1: not shown
heavy 2: B6 heavy 2 with S292N, Y338F
light: not shown
notes: CD19xCD3 Fab-scFv-Fab: two C19B Fabs, anti-CD3 scFv 40E9-L2H3-Y101F.H; L234A/L235A
Turning to B7, the EC50 in assay [6] is 0.359 nM; in assay [7] it was 1.11 nM; in [8] it was 0.508 nM. Besides, the binding result in assay [1] is on record as “binds”.

B8: ATG-Bis-40E9 (bispecific antibody)
VH: EVQLQQSGPELVKPGASVKMSCKASGYTFTSYVIHWVKQKTGQGLEWIGYFNPYNDGTKYNEEFKGKATLTSDKSSNTAYMELNSLTSDDSAVYFCARGGVRRYFDVWGAGTTVTVSS
VL: DIQMTQSPSSLSASLGERVSLTCRASQDIGSNLNWLQQEPDGTIKRLIYATFGLDSGVPKRFSGSRSGSDYSLTISSLESEDFVDYYCQQYASFPYTFGGGTKLEIK
scFv: EVQLQLSGPELVKPGASVKMSCKASGYTFSSYVIHWVKQKPGQGLEWIGYINPYNDVIKYNEKFKGKATLTSDKSSSTAYMELSSLTSEDSAVYYCARDSYYSYDGFAYWGQGTLVTVSAGGGGSGGGGSGGGGSGGGGSQIVLTQSPAIMSASPGEKVTMTCSASSSVSYMHWYQQKSGTSPKRWIYDTSKLASGVPARFSGSGSGTSYSLTISSMEAEDAATYYCQQWSSNPPTFGGGTKVEIK
notes: L234A/L235A; also called chimeric 2+1 bispecific antibody; parental antibody
Regarding B8, the binding result in [9] and in assay [3] was “binds” each time.

B9: Bis-GD2-Fab2-scFv (bispecific antibody)
VH: B2 VH 1
VL: B2 VL 1
scFv: B8 scFv
notes: Two anti-GD2 Fabs (humanized 3F8) and one anti-CD3 scFv (40-C12-C10-E9) joined by (GGGGS)2 linkers to CH1 of one Fab and to CH2; L234A/L235A; also called Fab-scFv-Fab GD2xCD3 bispecific antibody
For B9, the binding result in [3] is “binds”.

For the origin of these results see patent US20260193348A1 (ANTENGENE BIOLOGICS, published 2026).
